B1: ZNF449 (parent)
chain: QLTGHQRIHSGEEPHKCPECGKRF

Variants of: B1
Test: protein stability index of a GFP-peptide fusion (GPS, HEK-293T) (PSI 1-6); higher = more stable
Settings: c terminus: a fixed tail appended
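Also: lentivirally expressed fusions sorted by FACS into six bins by GFP to DsRed ratio, PSI derived from sequencing read proportions per bin multiplied by bin number.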

Protein stability index, by site and new letter:
S10: W 4.31, H 4.24, V 4.09, C 4.11, M 3.36, T 4.35, D 4.33, N 3.85, Q 3.91, F 4.12, P 4.47, E 4.48, R 3.55, I 3.6, A 4.01, L 4.12, Y 3.45, K 3.87
H15: I 4.8, M 3.68, T 4.52, L 3.65, Y 4.3, S 4.06, E 4.28, N 4.52, V 2.18, C 5.22, F 4.22, R 3.76, Q 4.31, P 3.94, A 4.68, K 3.66
E13: N 3.42, Q 3.63, V 3.33, W 3.57, C 4.11, A 4.21, R 3.54, P 4.1, Y 3.15, T 3.39, H 3.62, M 3.57, F 3.09, K 4.59, I 3.97, G 4.09, D 4.46, L 2.85
C17: V 4.76, F 4.6, M 4.72, W 3.92, T 3.98, H 4.17, K 5.14, Q 4.38, L 4.58, R 4.36, Y 4.26, E 4.89, G 3.56, D 5.48, I 4.4, S 4.43, A 4.4, P 4.71, N 4.3
H9: F 3.78, K 3.81, D 4.9, L 3.98, A 3.57, W 3.34, R 3.54, C 4.02, E 4.61, M 3.59, I 3.8, S 4.12, T 3.71, V 4.48, N 4.13, P 4.28, G 3.52
Q6: Y 3.97, W 3.05, N 3.77, F 2.85, E 3.77, H 4.16, R 2.88, V 3.27, A 4.67, K 3.43, P 4.04, D 4.77, M 3.68, G 3.44, S 4.24, C 4.23, I 3, T 3.84, L 3.83
T3: C 4.82, P 4.61, M 4.15, G 3.69, V 3.12, S 2.94, Y 3.54, N 2.66, I 2.64, D 4.99, F 4.01, E 4.59, K 3.99, R 3.48, H 4.45, Q 3.66, L 3.6, W 2.77
E12: I 3.63, P 3.48, K 3.43, D 4.15, R 4.01, A 5.14, C 3.35, M 3.73, W 3.99, T 3.43, L 4.05, Q 3.29, V 4.17, F 2.54, S 3.96, G 3.99, N 4.21, H 4.05, Y 3.41
E19: C 2
P18: F 3.41, V 4.55, D 5.02, H 3.61, I 3.88, K 4.15, R 4.4, A 3.92, Y 3.64, G 4.21, M 4.14, L 3.92, C 3.74, E 4.17, T 3.98, S 4.46, W 3.4, Q 4.02, N 4.3
H5: G 4.45, L 3.45, R 4.03, V 3.56, P 4.48, T 4.08, W 2.89, E 4.56, I 4.18, K 4.46, F 2.94, Q 3.65, Y 2.92, S 3.41, M 3.67, N 3.73, C 4.86, D 4.38, A 3.17
G11: C 4.88, Q 4.01, F 3.77, V 3.64, H 4.23, M 3.21, P 4.25, A 4.64, W 3.76, R 4.14, E 4.75, S 4.17, K 4.09, Y 3.87, N 3.86, D 4.5, L 3.87, I 3.52, T 3.96
G4: S 4.57, W 2.78, I 3.41, K 3.48, V 3.52, T 4.43, H 3.94, D 4.09, R 3.69, F 3.5, C 4.29, P 4.14, E 4.38, M 4.18, Q 4.7, L 3.83, N 3.42, A 4.34, Y 3.95
Q1: F 2.09, G 4.83, S 4.72, T 4.31, W 2.03, N 4.09, A 4.5, R 3.87, D 3.45, P 3.96, C 4.74, H 3.69, L 3.84, I 3.3, K 3.61, M 2.5, Y 2.71, V 3.76, E 3.42
R7: A 4.69, P 4.44, W 3.36, C 5.01, G 4.56, D 4.85, I 4.58, K 4.31, M 4.43, N 3.52, T 4.74, V 3.78, Y 4.14, L 4.7, Q 4.22, S 4.83, F 3.33, H 4.78, E 4.08
L2: M 4.86, C 5.34, H 4.58, N 4.59, V 4.65, R 4.33, E 4.71, G 4.77, D 5.01, A 4.57, S 4.6, T 4.64, W 4.53, P 4.89, Q 5.16, K 4.8, Y 3.66, F 3.89, I 3.1
K16: W 4.14, T 4.43, P 4.23, H 5, S 5.11, E 4.69, F 3.48, G 3.97, Q 4.3, C 3.84, D 4.82, M 3.94, L 4.48, N 4.54, A 4.36, R 3.41, Y 3.61, V 4.58, I 4.48
P14: Q 4.75, D 4.84, G 4.5, I 4.5, L 3.7, E 4.09, F 4.38, S 4.88, A 4.33, K 3.98, W 4.5, Y 4.65, R 3.75, V 4.19, C 4.22, N 4.49, M 4.05, H 3.88
I8: Q 4.23, T 4.42, M 4.67, K 3.63, R 3.75, Y 4.53, P 3.71, E 4.5, A 4.54, N 4.24, F 3.96, S 4.51, H 3.17, V 3.63, C 4.75, G 4.59, W 4.27, D 4.71, L 3.47

Reference: the supplement of paper PMC10567573
